# From the supplement of paper PMC12764529
# ± gives the half width of the 95% confidence interval.
# Columns and labels:
# [1] = folding stability dG unfold from chymotrypsin proteolysis; higher = more stable
# In short: (§1)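 Only designs with AlphaFold2 dimer inter-PAE above 15 were retained; each was a mini-protein under 80 residues with no cysteine, in a PA-tagged cDNA display construct. After digestion with trypsin and chymotrypsin and sequencing, K50 was inferred by Bayesian fitting of counts, and unfolding free energy was derived per protease or combined against a sequence-predicted unfolded-state K50 and a shared folded-state K50.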
# [2] = folding stability dG unfold from trypsin proteolysis; higher = more stable
# In short: as §1
# [3] = folding stability dG unfold (combined trypsin and chymotrypsin); higher = more stable
# In short: as §1
Sequence,folding stability dG unfold [1],folding stability dG unfold [2],folding stability dG unfold [3]
SAGGSAGGSAGRRIVFQFPLGMPIDEIADELADNGYEVEINWEPDPNGWMTFVIEITPPDSAGGSAGGSAGG [r11_1050_TrROS],2.31 ± 0.097 kcal/mol,1.45 ± 0.016 kcal/mol,1.97 ± 0.11 kcal/mol
SAGGSAGGSAGRRVTINHNPENGFFRVKVYPPKGKSQVYPIPMENLEEIKKNLPPGVEIVSAGGSAGGSAGG [r11_569_TrROS],-0.511 ± 0.24 kcal/mol,0.206 ± 0.12 kcal/mol,-0.102 ± 0.12 kcal/mol
SAGGSAGGSAGSFVKGGTVYEIYKNPNTKKYTIVATPKNGKKYVFTFDSPEEAEKALKASSAGGSAGGSAGG [r11_238_TrMRF],2.64 ± 0.046 kcal/mol,1.65 ± 0.036 kcal/mol,2.38 ± 0.065 kcal/mol
SAGGSAGGSAGSIKEALKKLKPGDTVEIEITLKDGSKIKIRVKVIRDKKTKKYKVKIEIESAGGSAGGSAGG [r11_343_TrROS_Hall],3.84 ± 0.077 kcal/mol,4.16 ± 0.47 kcal/mol,3.99 ± 0.31 kcal/mol
SAGGSAGGSAGSKDTMYLLKVKDLGENELKETYIEVPAEKVQEVIDALSSDPNLEIEVIPSAGGSAGGSAGG [r17_50_TrMRF],1.09 ± 0.054 kcal/mol,1.06 ± 0.041 kcal/mol,1.11 ± 0.064 kcal/mol
SAGGSAGGSAGSKKKRVITIWIPPNQSIEEAKNFMDEGFPIKEIDVQTRPDGHMMVTITLSAGGSAGGSAGG [r11_97_TrROS],1.05 ± 0.14 kcal/mol,1.56 ± 0.061 kcal/mol,1.21 ± 0.14 kcal/mol
SAGGSAGGSAGSLPIPISSESVSSLPESPLSVVTVKLPDGKTVVITVDLNSSSSSVTPLPSAGGSAGGSAGG [r17_369_JUSTAS],1.12 ± 0.032 kcal/mol,1.61 ± 0.051 kcal/mol,1.37 ± 0.051 kcal/mol
SAGGSAGGSAGSLTFQLPNGTEITVTEITLEIKLPNGDVILIKITVDPEPPVTTEVTFVNSAGGSAGGSAGG [r11_804_JUSTAS],1.37 ± 0.09 kcal/mol,1.8 ± 0.066 kcal/mol,1.64 ± 0.13 kcal/mol
SAGGSAGGSAGSMAVDLKITISEDPSKPTYTGTVHLPDGTVVTVTSTGSPEELRARLEALLSAGGSAGGSAG [r3_143_JUSTAS],1.94 ± 0.044 kcal/mol,0.0769 ± 0.076 kcal/mol,1.68 ± 0.088 kcal/mol
SAGGSAGGSAGSMTITITETKKLPNGKTVVTTTKVEVRVFPNGGAIERKTLEVVTEELLGSAGGSAGGSAGG [r17_129_JUSTAS],1.79 ± 0.053 kcal/mol,1.34 ± 0.041 kcal/mol,1.58 ± 0.098 kcal/mol
SAGGSAGGSAGSMTLLATETFPETGKTVKYYKEGDTIYRVDYSDPKNPVVTELSPSDPLKSAGGSAGGSAGG [r17_145_JUSTAS],2.29 ± 0.054 kcal/mol,1.68 ± 0.09 kcal/mol,2.12 ± 0.086 kcal/mol
SAGGSAGGSAGSMTTTTTIVKLPNGTLVLETPTVTTTTFPETGTTTTTTTVTVTVLPGLSSAGGSAGGSAGG [r11_1008_JUSTAS],1.3 ± 0.029 kcal/mol,2.47 ± 0.076 kcal/mol,1.89 ± 0.065 kcal/mol
SAGGSAGGSAGSPIDTLVEEKTFTLPNGEKVIEATLKRPPGEPVHVVTIETKDSVIVELESAGGSAGGSAGG [r17_316_JUSTAS],0.304 ± 0.086 kcal/mol,0.513 ± 0.019 kcal/mol,0.462 ± 0.049 kcal/mol
SAGGSAGGSAGSPKGKPPKPTIEYEPITFEIPNPDGQGFELEISIIRMPGNGQEFIGISFSAGGSAGGSAGG [r11_1024_TrROS],1.86 ± 0.069 kcal/mol,0.611 ± 0.086 kcal/mol,1.58 ± 0.17 kcal/mol
SAGGSAGGSAGSPLAQAVIDELKAQGYTVEAVTVTQPPGNAPVVVVTVKKPDGTRVVIDLSAGGSAGGSAGG [r11_780_JUSTAS],2.182 ± 0.016 kcal/mol,2.74 ± 0.12 kcal/mol,2.39 ± 0.07 kcal/mol
SAGGSAGGSAGSPMSAEEVEERLREELRRELGPDYTVTVTVTEVLPEGVYVVSVTVTGPASAGGSAGGSAGG [r11_153_JUSTAS],1.96 ± 0.028 kcal/mol,2.49 ± 0.14 kcal/mol,2.21 ± 0.099 kcal/mol
SAGGSAGGSAGSPVSNPEGGTITNTETLPDGKTIVNTQTIDPSKPKTTTSTTVLDPNGNAVSAGGSAGGSAG [r3_433_JUSTAS],1.55 ± 0.045 kcal/mol,0.894 ± 0.053 kcal/mol,1.27 ± 0.13 kcal/mol
SAGGSAGGSAGSSLPVLETREEGDLVYLLFPETNLLLVVRRGPGEVEVPSAVRVPPDVPLSAGGSAGGSAGG [r17_30_JUSTAS],1.03 ± 0.047 kcal/mol,0.805 ± 0.022 kcal/mol,0.958 ± 0.063 kcal/mol

Sequence,folding stability dG unfold [1],folding stability dG unfold [2],folding stability dG unfold [3]
SAGGSAGGSAGSSMTSTVTEVSTLSNGGTVVTTTTTSYYPSTGTTTTSTTTTTFTDGKAVSAGGSAGGSAGG [r11_337_JUSTAS],0.932 ± 0.027 kcal/mol,1.08 ± 0.057 kcal/mol,1.05 ± 0.03 kcal/mol
SAGGSAGGSAGSSPSDLKVTLKVTLPDGTVLTVVMPAHATLDDFPADRPVTVTTLETKLESAGGSAGGSAGG [r11_997_JUSTAS],0.656 ± 0.043 kcal/mol,1.66 ± 0.084 kcal/mol,1.29 ± 0.12 kcal/mol
SAGGSAGGSAGSSTSTSSDGVLTTYFPDGTVTSTETKPDPSTGTVLAVSTTTTPLPPDTLSAGGSAGGSAGG [r11_497_JUSTAS],0.572 ± 0.035 kcal/mol,2.01 ± 0.044 kcal/mol,1.39 ± 0.032 kcal/mol
SAGGSAGGSAGSSVKTYTGKGKKITITKLDNGTYIVTTPDKTSTYPPSVSEEEVIKKALESAGGSAGGSAGG [r17_272_JUSTAS],-0.0797 ± 0.44 kcal/mol,0.506 ± 0.093 kcal/mol,0.282 ± 0.17 kcal/mol
SAGGSAGGSAGSTALVETREFEDGTVVERVEVTLPNGEVLERTVVLTRDEAGNVVEEEVESAGGSAGGSAGG [r11_709_JUSTAS],1.29 ± 0.021 kcal/mol,0.224 ± 0.03 kcal/mol,0.958 ± 0.053 kcal/mol
SAGGSAGGSAGSTTTTITDPANGEAYEVTSDPNGGATITNPNSSQVYYKNADTITSVGASSAGGSAGGSAGG [r17_476_JUSTAS],-0.198 ± 0.49 kcal/mol,-0.263 ± 0.087 kcal/mol,-0.0736 ± 0.19 kcal/mol
SAGGSAGGSAGSVLILVSREDLEALLEAGAEIVEVSDDYVLIRVEVPEVEVLDENGKRLDSAGGSAGGSAGG [r11_828_TrROS_Hall],2.43 ± 0.056 kcal/mol,1.9 ± 0.042 kcal/mol,2.21 ± 0.077 kcal/mol
SAGGSAGGSAGSVTVSSTTTTLTDSMRVITETFTSPDLVKVTFVPTSNPEDVTVTTLPSASAGGSAGGSAGG [r11_1046_JUSTAS],1.04 ± 0.026 kcal/mol,-0.417 ± 0.093 kcal/mol,0.643 ± 0.092 kcal/mol
SAGGSAGGSAGTETKVLFIDENFESVEEAFQALRDLLPDNYKIEPLGVFPAKNKVVVLVTNPSAGGSAGGSA [r18_429_TrMRF],0.189 ± 0.27 kcal/mol,0.646 ± 0.056 kcal/mol,0.589 ± 0.15 kcal/mol
SAGGSAGGSAGTIKVNGKTVTITKNKKTGKYTITVTLKNGEKKTFVFPSKEDVEEALKALSAGGSAGGSAGG [r11_238_TrROS_Hall],4.14 ± 0.08 kcal/mol,3.27 ± 0.11 kcal/mol,3.94 ± 0.13 kcal/mol
SAGGSAGGSAGTITILFKDPEDAIDRIKEFAQKEGYKVKIDEIEYTPNGYVWIDIDIEPPSAGGSAGGSAGG [r11_304_TrROS],1.49 ± 0.11 kcal/mol,1.06 ± 0.045 kcal/mol,1.35 ± 0.099 kcal/mol
SAGGSAGGSAGTITINGKPITIEKLDNGYYKVKVNGKWYEIKPGEKIELPKGATVSIEKVSAGGSAGGSAGG [r11_147_TrROS_Hall],2.6 ± 0.035 kcal/mol,1.21 ± 0.069 kcal/mol,2.27 ± 0.14 kcal/mol
SAGGSAGGSAGTKTITLPNGLTLTIKPDEPVTITLVKVDPETNEIVEEKTITVYVKEDDLSAGGSAGGSAGG [r11_497_TrROS_Hall],1.19 ± 0.061 kcal/mol,1.08 ± 0.021 kcal/mol,1.2 ± 0.076 kcal/mol
SAGGSAGGSAGTLEALKNLKPGETVTLRVELRVERRYLDPNGKEHTEEVSTVTLELTLKPSAGGSAGGSAGG [r11_36_TrROS_Hall],3.62 ± 0.054 kcal/mol,3.22 ± 0.11 kcal/mol,3.49 ± 0.11 kcal/mol
SAGGSAGGSAGTLKLTLEVTVTRLYRLPDGSGSLVAETVRVRVEVELEVDELDEDGRLLLSAGGSAGGSAGG [r11_558_TrROS_Hall],3.269 ± 0.024 kcal/mol,3.08 ± 0.14 kcal/mol,3.18 ± 0.07 kcal/mol
SAGGSAGGSAGTVEEIAKYFAGEFPNYKVNIDVEWEGGKITSVDIEWEVVPPPPPESPGKSAGGSAGGSAGG [r11_197_TrROS],0.309 ± 0.18 kcal/mol,1.16 ± 0.12 kcal/mol,0.834 ± 0.22 kcal/mol
SAGGSAGGSAGTVIRVRDKNGKIVEISLEEAAELLGIPPSELTLEDIVKAFAEKVDSIEILSSAGGSAGGSA [r18_403_TrMRF],2.3 ± 0.038 kcal/mol,3.6 ± 0.1 kcal/mol,2.91 ± 0.064 kcal/mol
SAGGSAGGSAGVITIPLDDINDLPPGFKVKPNNNSMMIEDGDNPIHIPPGEPVQIEPPDESAGGSAGGSAGG [r17_91_TrROS],0.346 ± 0.097 kcal/mol,0.65 ± 0.1 kcal/mol,0.466 ± 0.22 kcal/mol
